Assay results taken from patent publication US20070078092A1 (CUREGENICS, published 2007).
Each block holds one binder with its values, some of them ahead of it. Square brackets hold non-standard residues; d marks the D form. Ends that are not written are not given here. * marks the point of attachment. Cholesteryloxycarbonyl = CC(C)CCC[C@@H](C)[C@H]1CC[C@H]2[C@@H]3CC=C4C[C@@H](OC(=O)*)CC[C@]4(C)[C@H]3CC[C@]12C; Lithocholoyl = C[C@H](CCC(=O)*)[C@H]1CC[C@H]2[C@@H]3CC[C@@H]4C[C@H](O)CC[C@]4(C)[C@H]3CC[C@]12C; FITC = O=C1OC2(c3ccc(O)cc3Oc3cc(O)ccc32)c2ccc(NC(=S)*)cc21; Biotin = O=C1N[C@H]2[C@H](CS[C@H]2CCCCC(=O)*)N1; hLeu = CC(C)CC[C@H](N)C(=O)O; VitB6 = vitamin B6 moiety; Orn = NCCC[C@H](N)C(=O)O; Nva = CCC[C@H](N)C(=O)O; Dap = NC[C@H](N)C(=O)O

What was measured:
Test in all cases: cell-based or functional assay
[1] = target: protein kinase B (PKB)
[2] = target: protein kinase B (PKB); remark: listed apart in the source
[3] = target: protein kinase B (PKB); remark: listed apart in the source
[4] = target: protein kinase A (PKA)
[5] = target: protein kinase B (PKB); remark: listed apart in the source

% Inhibition of PKB activity at 1 µM [1]: 76%
% Inhibition of PKB activity at 10 µM [1]: 92%
IC50, in vitro PKB inhibition [2]: 400 nM
B1: MPS ab60025-94 (peptide)
peptide: [dR][dR][dR][dR][dR][dR][dR]RPR[Nva]Y[Dap][hLeu]-NH2
modifications: N-terminus assumed
SMILES: CCC[C@H](NC(=O)[C@H](CCCNC(=N)N)NC(=O)[C@@H]1CCCN1C(=O)[C@H](CCCNC(=N)N)NC(=O)[C@@H](CCCNC(=N)N)NC(=O)[C@@H](CCCNC(=N)N)NC(=O)[C@@H](CCCNC(=N)N)NC(=O)[C@@H](CCCNC(=N)N)NC(=O)[C@@H](CCCNC(=N)N)NC(=O)[C@@H](CCCNC(=N)N)NC(=O)[C@H](N)CCCNC(=N)N)C(=O)N[C@@H](Cc1ccc(O)cc1)C(=O)N[C@@H](CN)C(=O)N[C@@H](CCC(C)C)C(N)=O

IC50, kinase assay PKB [3]: 800 nM
Binder: Lithocholoyl-GRPR[Nva]Y[Dap][hLeu]-NH2 [PTR 6218]

IC50, kinase assay PKB [3]: 1000 nM
Binder: {VitE‑Succinate}-RPR[Nva]YA[hLeu]-NH2 [PTR 6242]

IC50, kinase assay PKA [4]: > 10000 nM
IC50, kinase assay PKB [3]: 2000 nM
B2: PTR 6194 (peptide)
peptide: Lithocholoyl-RPR[Nva]YA[hLeu]-NH2
SMILES: CCC[C@H](NC(=O)[C@H](CCCNC(=N)N)NC(=O)[C@@H]1CCCN1C(=O)[C@H](CCCNC(=N)N)NC(=O)CC[C@@H](C)[C@H]1CC[C@H]2[C@@H]3CC[C@@H]4C[C@H](O)CC[C@]4(C)[C@H]3CC[C@]12C)C(=O)N[C@@H](Cc1ccc(O)cc1)C(=O)N[C@@H](C)C(=O)N[C@@H](CCC(C)C)C(N)=O

% Inhibition of PKB activity at 1 µM [1]: 97%
% Inhibition of PKB activity at 10 µM [1]: 99%
IC50, in vitro PKB inhibition [2]: 40 nM
B3: MPS ab60025-49 (peptide)
peptide: RPR[Nva]Y[Dap][hLeu][dK][dK][dK][dK][dK][dK][dK][dK][dK][dK]-NH2
modifications: N-terminus assumed
SMILES: CCC[C@H](NC(=O)[C@H](CCCNC(=N)N)NC(=O)[C@@H]1CCCN1C(=O)[C@@H](N)CCCNC(=N)N)C(=O)N[C@@H](Cc1ccc(O)cc1)C(=O)N[C@@H](CN)C(=O)N[C@@H](CCC(C)C)C(=O)N[C@H](CCCCN)C(=O)N[C@H](CCCCN)C(=O)N[C@H](CCCCN)C(=O)N[C@H](CCCCN)C(=O)N[C@H](CCCCN)C(=O)N[C@H](CCCCN)C(=O)N[C@H](CCCCN)C(=O)N[C@H](CCCCN)C(=O)N[C@H](CCCCN)C(=O)N[C@H](CCCCN)C(N)=O

IC50, kinase assay PKA [4]: > 10000 nM
IC50, kinase assay PKB [3]: 300 nM
Binder: {H‑1‑adamantyl}-RPR[Nva]YA[hLeu]-NH2 [PTR 6200]

IC50, kinase assay PKA [4]: 8000 nM
IC50, kinase assay PKB [3]: 5000 nM
Binder: {Galactopyranosyl‑O‑CO}-RPR[Nva]YA[hLeu]-NH2 [PTR 6224]

IC50, kinase assay PKA [4]: > 100000 nM
IC50, kinase assay PKB [3]: 1000 nM
Binder: Biotin-RPR[Nva]Y[Dap][hLeu]-NH2 [PTR 6158]

% Inhibition of PKB activity at 1 µM [1]: 80%
% Inhibition of PKB activity at 10 µM [1]: 96%
IC50, in vitro PKB inhibition [2]: 200 nM
Binder: RQIKIWFQNRRMKWKKRPRXYAX (Nva, Hol of the 6184 part) [MPS ab60025-4]

IC50, kinase assay PKB [3]: 1000 nM
Binder: VitB6-RPR[Nva]Y[Dap][hLeu] [PTR 6232]

% Inhibition of PKB activity at 1 µM [1]: 93%
% Inhibition of PKB activity at 10 µM [1]: 98%
IC50, in vitro PKB inhibition [2]: 80 nM
B4: MPS ab60025-50 (peptide)
peptide: [dK][dK][dK][dK][dK][dK][dK][dK][dK][dK]RPR[Nva]Y[Dap][hLeu]-NH2
modifications: N-terminus assumed
SMILES: CCC[C@H](NC(=O)[C@H](CCCNC(=N)N)NC(=O)[C@@H]1CCCN1C(=O)[C@H](CCCNC(=N)N)NC(=O)[C@@H](CCCCN)NC(=O)[C@@H](CCCCN)NC(=O)[C@@H](CCCCN)NC(=O)[C@@H](CCCCN)NC(=O)[C@@H](CCCCN)NC(=O)[C@@H](CCCCN)NC(=O)[C@@H](CCCCN)NC(=O)[C@@H](CCCCN)NC(=O)[C@@H](CCCCN)NC(=O)[C@H](N)CCCCN)C(=O)N[C@@H](Cc1ccc(O)cc1)C(=O)N[C@@H](CN)C(=O)N[C@@H](CCC(C)C)C(N)=O

IC50, in vitro kinase assay PKB [5]: 500 nM
B5: PTR 6402 (peptide)
peptide: Cholesteryloxycarbonyl-[dK][dK][dK]RPR[Nva]Y[Dap][hLeu]K(FITC)-NH2
SMILES: CCC[C@H](NC(=O)[C@H](CCCNC(=N)N)NC(=O)[C@@H]1CCCN1C(=O)[C@H](CCCNC(=N)N)NC(=O)[C@@H](CCCCN)NC(=O)[C@@H](CCCCN)NC(=O)[C@@H](CCCCN)NC(=O)O[C@H]1CC[C@@]2(C)C(=CC[C@H]3[C@@H]4CC[C@H]([C@H](C)CCCC(C)C)[C@@]4(C)CC[C@@H]32)C1)C(=O)N[C@@H](Cc1ccc(O)cc1)C(=O)N[C@@H](CN)C(=O)N[C@@H](CCC(C)C)C(=O)N[C@@H](CCCCNC(=S)Nc1ccc2c(c1)C(=O)OC21c2ccc(O)cc2Oc2cc(O)ccc21)C(N)=O

IC50, kinase assay PKA [4]: > 10000 nM
IC50, kinase assay PKB [3]: 300 nM
Binder: RPR[Nva]YA[hLeu]-NH2 (not fully specified (N-terminus)) [PTR 6202]

IC50, kinase assay PKB [3]: 2000 nM
Binder: VitB6-RPR[Nva]YA[hLeu]-NH2 [PTR 6228]

IC50, kinase assay PKA [4]: > 10000 nM
IC50, kinase assay PKB [3]: 3000 nM
Binder: {S‑carbofluorescin}-RPR[Nva]Y[Dap][hLeu]-NH2 [PTR 6182]

IC50, kinase assay PKB [3]: 7000 nM
Binder: {Testosterone‑yl‑O‑CO}-RPR[Nva]Y[Dap][hLeu]-NH2 [PTR 6212]

IC50, in vitro kinase assay PKB [5]: 200 nM
Binder: {Vitamin E‑CO‑(CH2)2‑CO}-[dK][dK][dK]RPR[Nva]Y[Dap][hLeu]-NH2 [PTR 6396]

IC50, kinase assay PKA [4]: 50000 nM
IC50, kinase assay PKB [3]: 8000 nM
Binder: Lauryl-RPR[Nva]Y[Dap][hLeu]-NH2 [PTR 6160]

% Inhibition of PKB activity at 1 µM [1]: 78%
% Inhibition of PKB activity at 10 µM [1]: 92%
IC50, in vitro PKB inhibition [2]: 400 nM
B6: MPS ab60025-82 (peptide)
peptide: [dK][dK][dK][dK][dK][dK][dK][dK]RPR[Nva]Y[Dap][hLeu]-NH2
modifications: N-terminus assumed
SMILES: CCC[C@H](NC(=O)[C@H](CCCNC(=N)N)NC(=O)[C@@H]1CCCN1C(=O)[C@H](CCCNC(=N)N)NC(=O)[C@@H](CCCCN)NC(=O)[C@@H](CCCCN)NC(=O)[C@@H](CCCCN)NC(=O)[C@@H](CCCCN)NC(=O)[C@@H](CCCCN)NC(=O)[C@@H](CCCCN)NC(=O)[C@@H](CCCCN)NC(=O)[C@H](N)CCCCN)C(=O)N[C@@H](Cc1ccc(O)cc1)C(=O)N[C@@H](CN)C(=O)N[C@@H](CCC(C)C)C(N)=O

IC50, kinase assay PKA [4]: > 10000 nM
IC50, kinase assay PKB [3]: 2500 nM
Binder: Lithocholoyl-GRPR[Nva]YA[hLeu]-NH2 [PTR 6192]

IC50, in vitro kinase assay PKB [5]: 300 nM
B7: PTR 6398 (peptide)
peptide: Cholesteryloxycarbonyl-[dK][dK][dK][Orn]PR[Nva]Y[Dap][hLeu]-NH2
SMILES: CCC[C@H](NC(=O)[C@H](CCCNC(=N)N)NC(=O)[C@@H]1CCCN1C(=O)[C@H](CCCN)NC(=O)[C@@H](CCCCN)NC(=O)[C@@H](CCCCN)NC(=O)[C@@H](CCCCN)NC(=O)O[C@H]1CC[C@@]2(C)C(=CC[C@H]3[C@@H]4CC[C@H]([C@H](C)CCCC(C)C)[C@@]4(C)CC[C@@H]32)C1)C(=O)N[C@@H](Cc1ccc(O)cc1)C(=O)N[C@@H](CN)C(=O)N[C@@H](CCC(C)C)C(N)=O

IC50, kinase assay PKB [3]: 2000 nM
Binder: Lithocholoyl-RPR[Nva]Y[Dap][hLeu]-NH2 [PTR 6220]

IC50, in vitro kinase assay PKB [5]: 300 nM
B8: PTR 6400 (peptide)
peptide: Cholesteryloxycarbonyl-[dK][dK][dK]KPR[Nva]Y[Dap][hLeu]-NH2
SMILES: CCC[C@H](NC(=O)[C@H](CCCNC(=N)N)NC(=O)[C@@H]1CCCN1C(=O)[C@H](CCCCN)NC(=O)[C@@H](CCCCN)NC(=O)[C@@H](CCCCN)NC(=O)[C@@H](CCCCN)NC(=O)O[C@H]1CC[C@@]2(C)C(=CC[C@H]3[C@@H]4CC[C@H]([C@H](C)CCCC(C)C)[C@@]4(C)CC[C@@H]32)C1)C(=O)N[C@@H](Cc1ccc(O)cc1)C(=O)N[C@@H](CN)C(=O)N[C@@H](CCC(C)C)C(N)=O

% Inhibition of PKB activity at 1 µM [1]: 60%
% Inhibition of PKB activity at 10 µM [1]: 92%
IC50, in vitro PKB inhibition [2]: 1000 nM
Binder: RQIKIWFQNRRMKWKKRPRXYXX (Nva, Dap, Hol of the 6154 part) [MPS ab60025-2]

IC50, kinase assay PKB [3]: 3000 nM
Binder: {Testosterone‑yl‑O‑CO}-RPR[Nva]YA[hLeu]-NH2 [PTR 6226]

IC50, kinase assay PKB [3]: 10000 nM
Binder: {Galactopyranosyl‑O‑CO}-RPR[Nva]Y[Dap][hLeu]-NH2 [PTR 6214]

IC50, in vitro kinase assay PKB [5]: 10000 nM
Binder: {HO‑CO‑(CH2)2‑CO}-[dK][dK][dK]RPR[Nva]Y[Dap][hLeu]-NH2 [PTR 6394]
